Test results: patent US20190002553A1

What was measured:
[1] = target: human IL-11 (Interleukin 11) (human) (UniProt P20809); assay: cell-based or functional assay
murine IL-11 (mouse) = murine IL-11 (mouse) (UniProt P47873); assay: cell-based or functional assay
Chain of UniProt P47873 (P47873 22-199 limits assumed): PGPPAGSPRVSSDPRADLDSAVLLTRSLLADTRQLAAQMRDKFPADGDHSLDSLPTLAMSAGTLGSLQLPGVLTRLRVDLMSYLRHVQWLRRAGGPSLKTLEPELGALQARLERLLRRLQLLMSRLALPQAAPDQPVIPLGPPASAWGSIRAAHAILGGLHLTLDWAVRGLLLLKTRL

Chain of UniProt P20809 (P20809 22-199 limits assumed): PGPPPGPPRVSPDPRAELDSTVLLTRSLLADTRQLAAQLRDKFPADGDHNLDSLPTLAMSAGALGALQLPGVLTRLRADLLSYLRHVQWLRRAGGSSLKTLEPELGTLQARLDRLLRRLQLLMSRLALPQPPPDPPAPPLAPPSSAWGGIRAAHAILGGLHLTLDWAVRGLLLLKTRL

For “neutralising anti-human IL-11 monoclonal antibody (Monoclonal Mouse IgG2A; Clone #22626; Catalog No. MAB218; R&D Systems)”, the percentage of activated (αSMA-positive) fibroblasts, TGFβ1-stimulated human atrial fibroblasts [1] was 28.3%, the percentage of activated fibroblasts normalised to non-stimulated cultures (=1) (fold of non-stimulated cultures) [1] was 0.99 and the percentage of activated fibroblasts, TGFβ1-stimulated human atrial fibroblasts, relative to unstimulated cultures [1] was 0.89 fold. It also gave a percentage of activated fibroblasts normalised to non-stimulated cultures (=1) (fold of non-stimulated cultures) (murine IL-11 (mouse)) of 1.24, a percentage of activated fibroblasts, TGFβ1-stimulated mouse atrial fibroblasts, relative to unstimulated cultures (murine IL-11 (mouse)) of 1.44 fold and a percentage of activated fibroblasts, TGFβ1-stimulated mouse dermal fibroblasts (murine IL-11 (mouse)) of 39.4%.
